Here are results for one molecule from article PMC1181240.

For this data set, the target named is MMLV RT N-terminal fragment (fingers/palm catalytic fragment) (Moloney murine leukemia virus, UniProt P03355 683-937). Description: X-ray crystallography.
Chain of MMLV RT N-terminal fragment (fingers/palm catalytic fragment) (P03355 683-937): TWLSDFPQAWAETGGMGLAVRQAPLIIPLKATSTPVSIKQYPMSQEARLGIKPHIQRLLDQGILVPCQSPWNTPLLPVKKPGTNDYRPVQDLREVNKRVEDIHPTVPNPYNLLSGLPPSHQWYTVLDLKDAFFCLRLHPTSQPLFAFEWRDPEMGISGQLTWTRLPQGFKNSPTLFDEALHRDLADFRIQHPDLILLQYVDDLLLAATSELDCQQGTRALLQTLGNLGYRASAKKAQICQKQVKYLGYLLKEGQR

B1: 16mer d(CTTAATTCGAATTAAG)2 (dsDNA)
DNA 1: CTTAATTCGAATTAAG
DNA 2: CTTAATTCGAATTAAG
For B1, the binding result is on record as “binds”.
